The target in this assay is wsb1_human WSB1 (UniProt Q9Y6I7).
UniProt Q9Y6I7, sequence (Q9Y6I7 whole entry): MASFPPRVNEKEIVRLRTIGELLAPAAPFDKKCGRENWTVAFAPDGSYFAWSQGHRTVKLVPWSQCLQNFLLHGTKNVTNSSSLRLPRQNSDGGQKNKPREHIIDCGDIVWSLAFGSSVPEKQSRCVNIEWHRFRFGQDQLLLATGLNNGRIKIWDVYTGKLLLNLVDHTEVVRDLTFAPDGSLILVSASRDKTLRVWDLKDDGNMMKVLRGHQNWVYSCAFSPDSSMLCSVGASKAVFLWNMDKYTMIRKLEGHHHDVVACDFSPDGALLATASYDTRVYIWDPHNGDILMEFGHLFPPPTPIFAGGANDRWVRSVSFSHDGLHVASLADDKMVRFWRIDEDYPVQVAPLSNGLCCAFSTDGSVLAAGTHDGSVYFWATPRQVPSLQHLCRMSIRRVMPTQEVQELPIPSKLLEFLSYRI

For the substance “Leucine-rich repeat serine/threonine-protein kinase 2 (Homo sapiens), Q5S007 G2019S”, the “effect of a mutation on the interaction” value was “with no effect”.

For the origin of these results see IntAct's records for PubMed 27273569.
